Reference: WO2022138911A1 (dated 2022)

B1: purified recombinant 7G7.2 antibody (antibody, human IgG1, kappa)
heavy: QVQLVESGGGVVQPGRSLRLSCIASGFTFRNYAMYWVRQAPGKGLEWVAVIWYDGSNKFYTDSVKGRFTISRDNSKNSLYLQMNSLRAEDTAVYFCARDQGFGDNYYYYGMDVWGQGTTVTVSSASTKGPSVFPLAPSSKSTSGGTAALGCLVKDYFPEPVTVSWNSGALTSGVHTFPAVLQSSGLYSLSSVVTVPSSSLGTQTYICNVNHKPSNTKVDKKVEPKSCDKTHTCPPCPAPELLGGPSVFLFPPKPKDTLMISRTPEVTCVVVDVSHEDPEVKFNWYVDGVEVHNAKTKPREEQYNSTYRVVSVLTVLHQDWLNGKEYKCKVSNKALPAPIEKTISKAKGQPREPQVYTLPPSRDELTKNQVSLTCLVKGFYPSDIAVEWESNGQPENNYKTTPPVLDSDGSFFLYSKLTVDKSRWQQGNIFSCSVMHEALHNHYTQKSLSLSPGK
light: SYELTQPPSVSVSPGQTARISCSGDALPKEYAYWYQQKPGQAPVLVIYKDSERPSGIPERFSGSSSGTTVTLTISGVQAEDEADYYCQLADSSMHYVVFGGGTKLTVLRTVAAPSVFIFPPSDEQLKSGTASVVCLLNNFYPREAKVQWKVDNALQSGNSQESVTEQDSKDSTYSLSSTLTLSKADYEKHKVYACEVTHQGLSSPVTKSFNRGEC
B2: purified recombinant 7G7.1 antibody (antibody, human IgG1, lambda)
heavy: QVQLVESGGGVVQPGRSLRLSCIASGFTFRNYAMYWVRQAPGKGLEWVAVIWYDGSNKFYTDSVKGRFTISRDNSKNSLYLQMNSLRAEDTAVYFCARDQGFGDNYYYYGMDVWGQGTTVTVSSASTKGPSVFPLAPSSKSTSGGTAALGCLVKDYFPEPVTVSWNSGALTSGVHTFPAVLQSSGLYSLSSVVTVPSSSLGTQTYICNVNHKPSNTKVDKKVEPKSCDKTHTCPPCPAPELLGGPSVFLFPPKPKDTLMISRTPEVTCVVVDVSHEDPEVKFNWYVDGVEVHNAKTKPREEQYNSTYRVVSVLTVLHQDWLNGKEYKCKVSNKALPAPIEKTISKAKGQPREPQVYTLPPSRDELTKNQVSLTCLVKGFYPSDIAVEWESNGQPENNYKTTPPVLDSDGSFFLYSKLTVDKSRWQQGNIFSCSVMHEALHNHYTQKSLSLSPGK
light: SYELTQPPSVSVSPGQTARISCSGDALPKEYAYWYQQKPGQAPVLVIYKDSERPSGIPERFSGSSSGTTVTLTISGVQAEDEADYYCQLADSSMHYVVFGGGTKLTVLGQPKAAPSVTLFPPSSEELQANKATLVCLISDFYPGAVTVAWKADSSPVKAGVETTTPSKQSNNKYAASSYLSLTPEQWKSHRSYSCQVTHEGSTVEKTVAPTECS

Biological target: SARS-CoV2 Spike protein (ECD, His & Flag Tag) (GenScript, Z03481) (135 kDa) (SARS-CoV2 virus, UniProt P0DTC2 14-1213)

Binder	Kd
B1	1.55 nM
B2	2.04 nM
